For assay [1], the target named is T1, recombinant soluble DR5 protein (rsDR5) (human, UniProt O14763 56-183).
T1 construct: Expressed in E. coli from pET21b(+)-sDR5 and purified on Ni-NTA; also called DR5 extracellular domain protein
Put plainly: SPR, BIAcore 3000; antibody captured by anti-human IgG (Fc) on CM5 chip, rsDR5 0.3-85 nM as analyte.
Procedure: (§1) For the direct coupling of anti-human IgG (Fc), CM5 sensor chips and the reference flow cells were coated with ˜1500-2000 RU in HBS-EP+(10 mM HEPES buffer, pH 7.4, 0.15 M NaCl, 3 mM EDTA, and 0.05% Surfactant P20). […] For regeneration, 3 M MgCl₂ was loaded at flow rate of 10 μl/min for 30 sec. All sensograms were globally fitted using BIAevaluation software 3.1 (Biacore) to determine the dissociation constant KD (KD=koff/kₒₙ).

Assay [2] has as its target T1, recombinant soluble DR5 protein (rsDR5). Nature of the assay: SPR, BIAcore 3000; conjugate captured by anti-human IgG (Fc) on CM5 chip, rsDR5 0.3-85 nM as analyte.
Procedure: as §1

B1: hB273 antibody (humanized B273) (antibody, human IgG1, kappa, V domains shown)
VH: EVQLVQSGAEVKKPGASVKVSCKASGYSFIGYFMNWMKQSPGMSLEWIGRFNPYNEDTFYNQKFKGKATLTVDKSTSTAYMELSSLRSEDTAVYFCARSAYYFDSGGYFDYWGQGTLVTVSS
VL: DIVMTQSPLSLPVTPGEPASISCRSSQSLVHSNKNTYLHWYLQKPGQSPQLLIYKVSNRFSGVPDRFSGSGSGTDFTLKISRVEAEDVGVYYCSQSTHVPWTFGPGTKVEIKR
notes: Anti-DR5 antibody
In the case of B1, in assay [1], the Kd amounted to 2.6 nM and the kon was found to be 2.6e+06 M⁻¹ s⁻¹.

B2: hB273-vc-MMAE (antibody drug conjugate of hB273 conjugated with mc-vc-MMAE) (antibody, V domains shown)
VH: EVQLVQSGAEVKKPGASVKVSCKASGYSFIGYFMNWMKQSPGMSLEWIGRFNPYNEDTFYNQKFKGKATLTVDKSTSTAYMELSSLRSEDTAVYFCARSAYYFDSGGYFDYWGQGTLVTVSS
VL: DIVMTQSPLSLPVTPGEPASISCRSSQSLVHSNKNTYLHWYLQKPGQSPQLLIYKVSNRFSGVPDRFSGSGSGTDFTLKISRVEAEDVGVYYCSQSTHVPWTFGPGTKVEIKR
modifications: mc-vc-MMAE drug-linker on cysteine thiols freed by partial TCEP reduction; average about 3.5 to 4.5 drug-linker units per antibody; positions not given
notes: Antibody drug conjugate of hB273; also called hB273-veMMAE
For the molecule B2, the Kd in assay [2] worked out at 3.2 nM.

The values are drawn from patent US20130280282A1, “DR5 LIGAND DRUG CONJUGATES” (Daiichi Sankyo Co., Ltd., priority 2012, published 2013).
